# Data as given in patent US20180057604A1 (Genentech, published 2018).
# Like-named read-outs stand apart in the source and are kept apart here.
# T1: cyno TfR extracellular domain (analogous construct to human TfR ecd) (cynomolgus monkey, UniProt Q5RDH6 87-760 (Pongo abelii entry))
# T1 construct: also called cynoTfR ecd
# T1 chain: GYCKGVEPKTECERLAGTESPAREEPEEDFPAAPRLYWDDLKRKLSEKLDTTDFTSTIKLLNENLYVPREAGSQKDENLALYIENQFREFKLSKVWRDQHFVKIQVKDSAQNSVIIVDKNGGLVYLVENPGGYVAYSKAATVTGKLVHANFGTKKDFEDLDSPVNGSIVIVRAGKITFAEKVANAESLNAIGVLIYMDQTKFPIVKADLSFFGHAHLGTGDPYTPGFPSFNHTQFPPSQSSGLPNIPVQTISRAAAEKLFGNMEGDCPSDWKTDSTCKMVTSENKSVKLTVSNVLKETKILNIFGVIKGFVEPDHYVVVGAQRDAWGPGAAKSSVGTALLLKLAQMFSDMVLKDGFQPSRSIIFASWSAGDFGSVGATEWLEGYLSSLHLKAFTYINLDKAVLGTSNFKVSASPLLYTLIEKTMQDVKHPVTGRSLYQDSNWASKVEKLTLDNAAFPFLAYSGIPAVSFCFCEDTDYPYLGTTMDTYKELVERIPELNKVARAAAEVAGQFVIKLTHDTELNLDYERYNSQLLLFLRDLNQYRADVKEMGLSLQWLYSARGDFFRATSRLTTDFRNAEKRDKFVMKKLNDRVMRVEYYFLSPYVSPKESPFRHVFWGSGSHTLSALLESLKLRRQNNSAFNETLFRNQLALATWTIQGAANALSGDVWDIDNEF
# Key:
# Assay in all cases: SPR, IgG
# [1] = biological target: T1, cyno TfR extracellular domain …
# [2] = biological target: T2, human TfR extracellular domain with N-terminal His tag (human, UniProt P02786 89-760)
# T2 construct: Biotinylated in some assays; also called huTfR; HuTfR
# T2 sequence (P02786 89-760 G142S): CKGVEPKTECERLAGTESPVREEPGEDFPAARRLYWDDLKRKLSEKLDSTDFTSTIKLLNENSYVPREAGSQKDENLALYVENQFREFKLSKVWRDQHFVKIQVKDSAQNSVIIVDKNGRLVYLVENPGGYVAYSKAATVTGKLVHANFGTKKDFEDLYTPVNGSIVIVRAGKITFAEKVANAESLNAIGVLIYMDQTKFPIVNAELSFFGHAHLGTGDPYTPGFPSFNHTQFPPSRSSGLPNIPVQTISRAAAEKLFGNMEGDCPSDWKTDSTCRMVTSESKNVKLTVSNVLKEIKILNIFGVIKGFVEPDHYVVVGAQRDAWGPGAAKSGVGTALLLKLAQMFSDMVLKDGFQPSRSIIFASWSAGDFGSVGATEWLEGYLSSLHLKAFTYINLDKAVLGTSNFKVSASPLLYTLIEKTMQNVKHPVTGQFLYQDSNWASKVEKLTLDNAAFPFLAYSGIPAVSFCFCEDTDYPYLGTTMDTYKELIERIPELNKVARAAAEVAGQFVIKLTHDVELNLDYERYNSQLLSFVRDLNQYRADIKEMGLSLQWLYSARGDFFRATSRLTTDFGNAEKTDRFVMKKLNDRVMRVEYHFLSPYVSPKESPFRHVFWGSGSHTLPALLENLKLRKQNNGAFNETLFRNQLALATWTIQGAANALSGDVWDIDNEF
# [3] = biological target: T1, cyno TfR extracellular domain …
# Method: (§1) Antibody affinities were measured using surface plasmon resonance (“SPR”) (Biacore™, GE Healthcare). Anti-His antibody (Qiagen) was coupled onto four different flow cells of a BIACORE™ CM5 sensor chip (Biacore, Inc., Piscataway, N.J.) at between 6000 and 8000 RU. Immobilization was achieved by random coupling through amino groups using a protocol provided by the manufacturer. 10×HBS-P (Biacore, Inc., Piscataway, N.J.) was diluted in water and served as the dilution and running buffer. Purified human or cyno TfR was captured, followed by a 3-fold dilution series of IgG or Fab that was injected at a flow rate of 30 ml/min using the single cycle kinetics method. Affinity constants were determined using a simple 1:1 Langmuir binding model or using a steady state model when kₒₙ or koff was beyond the detection limit. The equilibrium dissociation constant (KD) was calculated as the ratio of association rate constant (kₒₙ) and dissociation rate constant (koff).
# (§2) In both cases, the SPR experiments were performed as described above.
# [4] = biological target: T2, human TfR extracellular domain with …; remark: listed apart in the source
# Method: as §1, §2
# 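Also: His-tagged TfR captured via immobilized anti-His antibody on a CM5 chip, antibody injected in 3-fold dilution series by single cycle kinetics, 1:1 Langmuir or steady-state fit.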
Kd [1],Kd [2],Kd [3],Kd [4],Binder
1.67 nM,0.279 nM,,,"hu7A4.v1 (antibody, V domains shown, IgG) VH: EVQLVQSGAEVKKPGASVKVSCKASGYTFTDYAMHWVRQAPGQGLEWMGGISTYFGRTNYNQKFKGRVTMTRDTSISTAYMELSRLRSDDTAVYYCARGLSGNYVMDYWGQGTTVTVSS VL: DIVMTQSPDSLAVSLGERATINCRASESVDSYGNSFMHWYQQKPGQPPKLLIYRASNLESGVPDRFSGSGSGTDFTLTISSLQAEDVAVYYCQQSNEGPPTFGQGTKLEIK"
1.22 nM,0.232 nM,,,"hu7A4.v2 (antibody, V domains shown, IgG) VH: EVQLVQSGAEVKKPGASVKVSCKGSGYTFTDYAMHWVRQAPGQGLEWMGGISTYFGRTNYNQKFKGRVTMTRDTSISTAYMELSRLRSDDTAVYYCARGLSGNYVMDYWGQGTTVTVSS VL: DIVMTQSPDSLAVSLGERATINCRASESVDSYGNSFMHWYQQKPGQPPKLLIYRASNLESGVPDRFSGSGSGTDFTLTISSLQAEDVAVYYCQQSNEGPPTFGQGTKLEIK"
2.9 nM,0.543 nM,,,"hu7A4.v3 (antibody, V domains shown, IgG) VH: EVQLVQSGAEVKKPGASVKVSCKASGYTFTDYAMHWVRQAPGQGLEWMGGISTYFGRTNYNQKFKGRVTMTVDTSISTAYMELSRLRSDDTAVYYCARGLSGNYVMDYWGQGTTVTVSS VL: DIVMTQSPDSLAVSLGERATINCRASESVDSYGNSFMHWYQQKPGQPPKLLIYRASNLESGVPDRFSGSGSGTDFTLTISSLQAEDVAVYYCQQSNEGPPTFGQGTKLEIK"
,,11.4 nM,1.36 nM,"hu7A4.v13 (antibody, V domains shown, IgG) VH: EVQLVQSGAEVKKPGASVKVSCKGSGYTFTDYAMHWVRQAPGQGLEWMGGISTYFGRTNYNQKFKGRVTMTVDTSISTAYMELSRLRSDDTAVYYCARGLSGNYVMDYWGQGTTVTVSS VL: DIVMTQSPDSLAVSLGERATINCRASESVDSYGNSFMHWYQQKPGQPPKLLIYRASNLESGVPDRFSGSGSGTDFTLTISSLQAEDVAVYYCQQSNEAPPTFGQGTKLEIK"
,,15.7 nM,1.19 nM,"hu7A4.v14 (antibody, V domains shown, IgG) VH: EVQLVQSGAEVKKPGASVKVSCKGSGYTFTDYAMHWVRQAPGQGLEWMGGISTYFGRTNYNQKFKGRVTMTVDTSISTAYMELSRLRSDDTAVYYCARGLSGNYVMDYWGQGTTVTVSS VL: DIVMTQSPDSLAVSLGERATINCRASESVDSYGNSFMHWYQQKPGQPPKLLIYRASNLESGIPDRFSGSGSGTDFTLTISSLQAEDVAVYYCQQSNEAPPTFGQGTKLEIK"
3.83 nM,0.612 nM,,,"hu7A4.v4 (antibody, V domains shown, IgG) VH: EVQLVQSGAEVKKPGASVKVSCKGSGYTFTDYAMHWVRQAPGQGLEWMGGISTYFGRTNYNQKFKGRVTMTVDTSISTAYMELSRLRSDDTAVYYCARGLSGNYVMDYWGQGTTVTVSS VL: DIVMTQSPDSLAVSLGERATINCRASESVDSYGNSFMHWYQQKPGQPPKLLIYRASNLESGVPDRFSGSGSGTDFTLTISSLQAEDVAVYYCQQSNEGPPTFGQGTKLEIK"
1.06 nM,0.26 nM,,,"hu7A4.v6 (antibody, V domains shown, IgG) VH: EVQLVQSGAEVKKPGASVKVSCKGSGYTFTDYAMHWVRQAPGQGLEWMGGISTYFGRTNYNQKFKGRVTMTRDTSISTAYMELSRLRSDDTAVYYCARGLSGNYVMDYWGQGTTVTVSS VL: DIVMTQSPDSLAVSLGERATINCRASESVDSYGNSFMHWYQQKPGQPPKLLIYRASNLESGIPDRFSGSGSGTDFTLTISSLQAEDVAVYYCQQSNEGPPTFGQGTKLEIK"
,,1.18 nM,0.515 nM,"hu7A4.v7 (antibody, V domains shown, IgG) VH: EVQLVQSGAEVKKPGASVKVSCKASGYTFTDYAMHWVRQAPGQGLEWMGGISTYFGRTNYNQKFKGRVTMTVDTSISTAYMELSRLRSDDTAVYYCARGLSGNYVMDYWGQGTTVTVSS VL: DIVMTQSPDSLAVSLGERATINCRASESVDSYGNSFMHWYQQKPGQPPKLLIYRASNLESGIPDRFSGSGSGTDFTLTISSLQAEDVAVYYCQQSNEGPPTFGQGTKLEIK"
,,,1.29 nM,"hu7A4.v8 (antibody, V domains shown, IgG) VH: EVQLVQSGAEVKKPGASVKVSCKGSGYTFTDYAMHWVRQAPGQGLEWMGGISTYFGRTNYNQKFKGRVTMTVDTSISTAYMELSRLRSDDTAVYYCARGLSGNYVMDYWGQGTTVTVSS VL: DIVMTQSPDSLAVSLGERATINCRASESVDSYGNSFMHWYQQKPGQPPKLLIYRASNLESGIPDRFSGSGSGTDFTLTISSLQAEDVAVYYCQQSNEGPPTFGQGTKLEIK"
,,0.428 nM,0.119 nM,"hu7A4.v9 (antibody, V domains shown, IgG) VH: EVQLVQSGAEVKKPGASVKVSCKASGYTFTDYAMHWVRQAPGQGLEWMGGISTYFGRTNYNQKFKGRVTMTRDTSISTAYMELSRLRSDDTAVYYCARGLSGNYVMDYWGQGTTVTVSS VL: DIVMTQSPDSLAVSLGERATINCRASESVDSYGNSFMHWYQQKPGQPPKLLIYRASNLESGVPDRFSGSGSRTDFTLTISSLQAEDVAVYYCQQSNEGPPTFGQGTKLEIK"
,,0.505 nM,0.143 nM,"hu7A4.v10 (antibody, V domains shown, IgG) VH: EVQLVQSGAEVKKPGASVKVSCKGSGYTFTDYAMHWVRQAPGQGLEWMGGISTYFGRTNYNQKFKGRVTMTRDTSISTAYMELSRLRSDDTAVYYCARGLSGNYVMDYWGQGTTVTVSS VL: DIVMTQSPDSLAVSLGERATINCRASESVDSYGNSFMHWYQQKPGQPPKLLIYRASNLESGVPDRFSGSGSRTDFTLTISSLQAEDVAVYYCQQSNEGPPTFGQGTKLEIK"
,,0.943 nM,0.156 nM,"hu7A4.v11 (antibody, V domains shown, IgG) VH: EVQLVQSGAEVKKPGASVKVSCKASGYTFTDYAMHWVRQAPGQGLEWMGGISTYFGRTNYNQKFKGRVTMTVDTSISTAYMELSRLRSDDTAVYYCARGLSGNYVMDYWGQGTTVTVSS VL: DIVMTQSPDSLAVSLGERATINCRASESVDSYGNSFMHWYQQKPGQPPKLLIYRASNLESGVPDRFSGSGSRTDFTLTISSLQAEDVAVYYCQQSNEGPPTFGQGTKLEIK"
,,2.09 nM,0.2 nM,"hu7A4.v12 (antibody, V domains shown, IgG) VH: EVQLVQSGAEVKKPGASVKVSCKGSGYTFTDYAMHWVRQAPGQGLEWMGGISTYFGRTNYNQKFKGRVTMTVDTSISTAYMELSRLRSDDTAVYYCARGLSGNYVMDYWGQGTTVTVSS VL: DIVMTQSPDSLAVSLGERATINCRASESVDSYGNSFMHWYQQKPGQPPKLLIYRASNLESGVPDRFSGSGSRTDFTLTISSLQAEDVAVYYCQQSNEGPPTFGQGTKLEIK"
,,199 nM,18.7 nM,"hu16F6.v1 (antibody, V domains shown, IgG; HC 71 V, 78 F) VH: EVQLVESGPGLVKPSETLSLTCTVSGNSITSEYAWNWIRQPPGKGLEWIGYISYSGTTSYNPSLKSRVTISVDTSKNQFSLKLSSVTAADTAVYYCARYGYGNPATRYFDVWGQGTLVTVSS VL: DIQMTQSPSSLSASVGDRVTITCRASKSISKYLAWYQQKPGKAPKLLLYSGSTLQSGVPSRFSGSGSGTDYTLTISSLQPEDFATYYCQQHNEYPWTFGQGTKVEIK"
,,34.5 nM,4.11 nM,"hu16F6.v3 (antibody, V domains shown, IgG; HC 71 V, 78 F) VH: EVQLVESGPGLVKPSETLSLTCTVSGNSITSEYAWNWIRQPPGKGLEWIGYISYSGTTSYNPSLKSRVTISVDTSKNQFSLKLSSVTAADTAVYYCARYGYGNPATRYFDVWGQGTLVTVSS VL: DIQMTQSPSSLSASVGDRVTITCRASKSISKYLAWYQQKPGKTNKLLLYSGSTLQSGVPSRFSGSGSGTDYTLTISSLQPEDFATYYCQQHNEYPWTFGQGTKVEIK"
